Non-standard residues stand in square brackets, D forms with d. Tyr(3-NO2) = N[C@@H](Cc1ccc(O)c([N+](=O)[O-])c1)C(=O)O

The target of data set [1] is PKG-1α. The experiment in a line: [3H]cGMP binding assay on immunopurified PKG-1α. Set-up: species or system human. As to conditions: [3H]cGMP 0-200 nM, 100 ng immunopurified enzyme; average affinity of the two cGMP-binding sites; + SIN1 = cells exposed to SIN-1 500 μM, 30 min. The procedure:
HEK-293T cells were transiently transfected with either the WT-PKG-1α or the Y247FPKG-1α cDNA using Effectene transfection reagent (Qiagen), according to the manufacturer's instructions. Briefly, the cells were split the day before the transfection to low cell densities (25%) and were transfected 24 h later. After 48 h of transfection, the cells were incubated in DMEM serum free media containing 1% FBS and antibiotics for 4 h and then treated with or without SIN-1 (500 μM), for 30 min. This method produced an approximate 70% transfection efficiency of HEK-293T cells, as measured using green fluorescent protein vectors. […]
The batches of supernatant were pooled, and 2 μg of anti-PKG-1α antibody per mg of protein were added to the extract and rocked at 4° C. […] After 15 min of agitation at 4° C., the beads were pelleted by centrifugation, and the supernatant containing the PKG-1α protein was collected, quantified using Bradford reagent, and stored at −80° C.
To assay the binding of cGMP to WT- and Y247F-PKG-1α the enzymes were saturated with cGMP by incubating 50 μl aliquots of the diluted PKG constructs for 60 min at room temperature with 50 μl of [^3H]cGMP and 150 μl of cGMP-binding assay mixture (25 mM K2HPO4, 25 mM KH2PO4, 1 mM EDTA, pH 6.8, 2M NaCl, 200 μM 3-isobutyl-1-methylxanthine). […] The dissociation constant (Kd) values were determined using GraphPad Prism graphics. […]

The subject of data set [2] is PKG-1α. The experiment in a line: PKG catalytic activity, Michaelis-Menten kinetics for cGMP. In kind it is biochemical, human. As to conditions: ATP 125 μM, cGMP 0-10 μM; + SIN1 = SIN-1 500 μM, 30 min. The procedure:
Total PKG activity was determined using a non-radioactive immunoassay in cell lysates, according to the manufacturer's directions. Briefly, protein samples were diluted in kinase reaction buffer containing Mg^2+ and ATP (125 μM) in the presence or absence of 8-Br cGMP (10 μM) and incubated in a 96 well plate pre-coated with a PKG substrate containing threonine residues phosphorylated by PKG.
After incubation for 30 min at 30° C. to allow the phosphorylation of the bound substrate, an HRP conjugated anti-phosphothreonine specific antibody was added to convert a chromogenic substrate to a colorimetric substrate that was subsequently read spectrophotometrically at 450 nm. The change in absorbance reflected the relative activity of PKG in the sample. The results were reported as pmols of phosphate incorporated into the GST-G substrate fusion protein by active PKG in the sample in the presence or absence of cGMP (10 μM) per minute at 30° C. per μg of protein (pmol/min/μg). […] The kinetic constants were determined using nonlinear regression (curve fit) analysis (GraphPad Prism Software Inc.).
To determine the Michaelis-Menten constant (Km) for cGMP, the kinase assay was performed, as mentioned above; however, the cGMP concentration was titrated from 0-10 μM, while the ATP concentration remained constant at 125 μM.

B1: WT-PKG-1α + SIN1: WT-PKG-1α immunopurified from cells exposed to SIN-1 (500 μM, 30 min) (protein)
chain: SELEEDFAKILMLKEERIKELEKRLSEKEEEIQELKRKLHKCQSVLPVPSTHIGPRTTRAQGISAEPQTYRSFHDLRQAFRKFTKSERSKDLIKEAILDNDFMKNLELSQIQEIVDCMYPVEYGKDSCIIKEGDVGSLVYVMEDGKVEVTKEGVKLCTMGPGKVFGELAILYNCTRTATVKTLVNVKLWAIDRQCFQTIMMRTGLIKHTEYMEFLKSVPTFQSLPEEILSKLADVLEETHYENGE[Tyr(3-NO2)]IIRQGARGDTFFIISKGTVNVTREDSPSEDPVFLRTLGKGDWFGEKALQGEDVRTANVIAAEAVTCLVIDRDSFKHLIGGLDDVSNKAYEDAEAKAKYEAEAAFFANLKLSDFNIIDTLGVGGFGRVELVQLKSEESKTFAMKILKKRHIVDTRQQEHIRSEKQIMQGAHSDFIVRLYRTFKDSKYLYMLMEACLGGELWTILRDRGSFEDSTTRFYTACVVEAFAYLHSKGIIYRDLKPENLILDHRGYAKLVDFGFAKKIGFGKKTWTFCGTPEYVAPEIILNKGHDISADYWSLGILMYELLTGSPPFSGPDPMKTYNIILRGIDMIEFPKKIAKNAANLIKKLCRDNPSERLGNLKNGVKDIQKHKWFEGFNWEGLRKGTLTPPIIPSVASPTDTSNFDSFPEDNDEPPPDDNSGWDIDF
As a reminder, the Kd is the free concentration of one partner at which half of the binding sites on the other are occupied at equilibrium, for simple one-to-one binding. Consider B1, for which the Kd in data set [1] is 0.0321 ± 0.0055 µM. The Vmax in data set [2] amounted to 0.28 ± 0.01 pmol/min/µg.

(Values after patent US9551711B2, “Compositions and methods for detecting nitration of PKG-1α and methods of use thereof” (Augusta University Research Institute, Inc., priority 2013, dated 2017).)
